Assay results taken from article PMC9239176, “Involvement of the DNA Phosphorothioation System in TorR Binding and Anaerobic TMAO Respiration in Salmonella enterica”.

Columns and labels:
[1] = tested on: DndF (Salmonella enterica serovar Cerro 87); experiment: pull-down LC-MS/MS; conditions: EMSA: 50 nM DNA, 20 mM Tris-HCl pH 8.0, 50 mM KCl, 10 mM MgCl2, 5 mM EDTA, 10 mM DTT, 5% glycerol, 28 C 30 min, gel at 4 C, pull-down: cell lysate, 4 C 4 h
[2] = tested on: Biotin carboxyl carrier protein of acetyl-CoA carboxylase (Salmonella enterica serovar Cerro 87); experiment: pull-down LC-MS/MS; conditions: EMSA: 50 nM DNA, 20 mM Tris-HCl pH 8.0, 50 mM KCl, 10 mM MgCl2, 5 mM EDTA, 10 mM DTT, 5% glycerol, 28 C 30 min, gel at 4 C, pull-down: cell lysate, 4 C 4 h
[3] = tested on: DndG (Salmonella enterica serovar Cerro 87); experiment: pull-down LC-MS/MS; conditions: EMSA: 50 nM DNA, 20 mM Tris-HCl pH 8.0, 50 mM KCl, 10 mM MgCl2, 5 mM EDTA, 10 mM DTT, 5% glycerol, 28 C 30 min, gel at 4 C, pull-down: cell lysate, 4 C 4 h
TorR CTD = molecular target: T1, TorR CTD (Salmonella enterica serovar Cerro 87, UniProt Q8ZKZ5 127-230); experiment: EMSA; EMSA: 50 nM DNA, 20 mM Tris-HCl pH 8.0, 50 mM KCl, 10 mM MgCl2, 5 mM EDTA, 10 mM DTT, 5% glycerol, 28 C 30 min, gel at 4 C; pull-down: cell lysate, 4 C 4 h; conditions: protein: recombinant; tags: His (pET28a, Ni-NTA)
T1 sequence: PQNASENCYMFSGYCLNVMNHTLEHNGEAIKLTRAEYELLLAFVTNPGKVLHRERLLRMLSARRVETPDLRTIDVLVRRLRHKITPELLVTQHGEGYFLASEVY

[4] = phosphorothioate: strand 1 between G13 and A14, strand 2 between G15 and T16

GGCCCACTACGTGAACCATCACCCTAATCA (double strand) [B12]
binding signal (normalized spectral count) [1, 4]: 20.2
binding signal (normalized spectral count) [2, 4]: 1.41
binding signal (normalized spectral count) [3, 4]: 30.9

GGCCCACTACGTGAACCATCACCCTAATCA (double strand) [B34]
binding signal (B34/B12 ratio) [1]: 0.43
binding signal (B34/B12 ratio) [2]: 2.78
binding signal (B34/B12 ratio) [3]: 0.32

B1: tor box1, PT (dsDNA)
DNA 1: CCTGCGCGCGGTCTCTTTCTGTTCATATCT
DNA 2: AGATATGAACAGAAAGAGACCGCGCGCAGG
modifications: phosphorothioate GpsTTC/GpsAAC
binding result (TorR CTD): binds
